The RNAGym collection of RNA variant scans (doi:10.1073/pnas.2313332121)
Fewer inactive variants are shown than the library holds.

B1: TPR 5TU (parent)
chain: GGAUCUUCUCGAUCUAACAAAAAAGACAAAUCUGCCACAAAGCUUGAGAGCAUCUUCGGAUGCAGAGGCGGCAGCCUUCGGUGGCGCGAUAGCGCCAACGUUCUCAACUAUGACACGCAAAACGCGUGCUCCGUUGAAUGGAGUUUAUCAUG

Variants of: B1
Assay: polymerase ribozyme fitness, log enrichment relative to wild type (log ratio); higher = more active; in vitro selection for triplet polymerase activity
In short: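 For each subunit of a heterodimeric triplet polymerase ribozyme, a mutant library was built by PCR and transcribed, then taken through a single in vitro selection round in triplicate. Selection involved annealing to a biotinylated primer, the partner subunit and triplets, incubation frozen at −7 °C, gel excision of extended constructs, capture on streptavidin beads and RT-PCR. Genotypes were retained after Illumina sequencing of inputs and outputs only with ≥10 input reads and ≥1 read in each output. Fitness is defined as the logarithm of a genotype's enrichment relative to wild-type enrichment, using inverse-variance-weighted averages across replicates, with the logarithm taken to base 2.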

| Variant | polymerase ribozyme fitness (log ratio) |
| --- | --- |
| C96A A120G | 0.0421 |
| G92C C108G G112C C123A G136C A137C A142G | ≤ -4.2 |
| C87G C93U G124C | ≤ -4.2 |
| A89C G92U C96A A106G A107U U139A | ≤ -4.2 |
| C96G G152C | -3.62 |
| C95A U144G | 0.303 |
| C87A G128A U146C U148A | ≤ -4.2 |
| A91G C125A | -3.21 |
| C87U C116U | -0.851 |
| C96A U135A | -1.48 |
| C93A C103G A107U A119G G140A | ≤ -4.2 |
| C87U A91U C96U | ≤ -4.2 |
| A91G A147U | -1.52 |
| G94C C131U U135G G152A | -3.32 |
| C95U C132G A150U | -3.31 |
| C93A A98U | -0.828 |
| A89C C93U C116U G128A | ≤ -4.2 |
| G92U C103G | -3.77 |
| C93A G140U | -3.85 |
| A91C A98U C116A A121G U130G | ≤ -4.2 |
| C87U | -0.596 |

| Variant | polymerase ribozyme fitness (log ratio) |
| --- | --- |
| U90A C95A | ≤ -4.2 |
| C95U C131A C132U | -3.79 |
| C87A A98U | -4.12 |
| A91G A106G A150U | -0.616 |
| C96A A97U C118U | -0.741 |
| U90A A106C G128A | ≤ -4.2 |
| A89C A110C | ≤ -4.2 |
| C93U G126A U139C | -4.1 |
| C93A U109G C123G | -3.37 |
| G92A C103A | -3.9 |
| G92A C103G | -4 |
| C87U U102C A115C | -2.7 |
| C87A U135C | ≤ -4.2 |
| C96A U102A G143C | -4.16 |
| C87A C93G | ≤ -4.2 |
| U90A C105G | ≤ -4.2 |
| G94A G140A | -3.51 |
| G94A A97G G124A | -1.65 |
| G92A A106C | -3.04 |
| G92C C114U G141U | ≤ -4.2 |
| A91U G140C | ≤ -4.2 |

| Variant | polymerase ribozyme fitness (log ratio) |
| --- | --- |
| G88U C108A G128C C132U A137U | ≤ -4.2 |
| A89G A121G C131G | -3.53 |
| A91C A137C A150C U151G | ≤ -4.2 |
| G94A G136A | -0.0776 |
| G94A G136U | -2.56 |
| C93U A122G C129U U146G | -3.83 |
| C87A C95U G141C | -4.16 |
| C96G A107C C108A A120U G136U | -3.81 |
| C96A U127C | -1.71 |
| C96G U104G G141U | -1.2 |
| G94U G143A | -1.67 |
| C87A G141C | ≤ -4.2 |
| C95U C99G G117A A120C A122G | -1.97 |
| C93G A113U | -4.11 |
| C87A U145A | -4.17 |
| U90C U145G | ≤ -4.2 |
| C93G A138G | ≤ -4.2 |
| G94U A142G | -3.45 |
| C93U G126A | -0.311 |
| C87G C93G | -3.76 |
| A89G G126C | 0.0965 |

| Variant | polymerase ribozyme fitness (log ratio) |
| --- | --- |
| C93G C123U G140U | -4.17 |
| G94C A138G G141A G143A | ≤ -4.2 |
| C96U A115U G124C U151C | ≤ -4.2 |
| A91U A121U U144A | ≤ -4.2 |
| U90A A119U G126A | ≤ -4.2 |
| G92U C95U A147G U148A | -3.45 |
| C96G G141U | 0.463 |
| C87U C99G U127A | ≤ -4.2 |
| C87A A107G A110G A120G U139C G140A A147G | ≤ -4.2 |
| C87G G100C | -3.97 |
| G94A A115U C125U C132U A147U | ≤ -4.2 |
| C93U A119U U127G | -2.59 |
| C87U U102G | -3.08 |
| G94C C132U | -1.26 |
| C96G A98U G100A C108G G133C | ≤ -4.2 |
| C93U A121U U127C | -2.87 |
| A91G C96U U101C U144G | -2.18 |
| G88A A97G U111G | ≤ -4.2 |
| C96U A150U | -0.525 |
| C96U A150C | -3.31 |
| G92A C103G C129G U134A | ≤ -4.2 |
